Legend:
CtPdc1 = system: T1, CtPdc1; test: coupled ADH/NADH assay at […] nm, crude extract, Lineweaver-Burk; type: cell-based, Candida viswanathii (printed as Candida tropicalis); conditions: pH 6.5 imidazole, 30 °C, 5 mM MgCl2, 0.2 mM TPP, 0.4 mM NADH; pyruvate 1.56-100 mM
T1 construct: gene PDC1; full-length ORF from genomic DNA, TDH3 promoter multi-copy plasmid in Pdc-deficient S. cerevisiae SOS5; no tag mentioned; ORF ends NAAQE by primer

[1] = substrate: CC(=O)C(=O)O; test: cells, lysate or membranes; type: cell-based, Kluyveromyces marxianus; conditions: pH 6.5 imidazole, 30 °C, 5 mM MgCl2, 0.2 mM TPP, 0.4 mM NADH, pyruvate 1.56-100 mM
[2] = substrate: CC(=O)C(=O)O; test: cells, lysate or membranes; type: cell-based, Saccharomyces cerevisiae; conditions: pH 6.5 imidazole, 30 °C, 5 mM MgCl2, 0.2 mM TPP, 0.4 mM NADH, pyruvate 1.56-100 mM

Molecule	Km [2] [mM]	further results
CC(=O)C(=O)O [pyruvate]	–	Km (CtPdc1): 2.7 mM
K. marxianus Pdc1 (Kluyveromyces marxianus) (protein, full-length ORF from genomic DNA, TDH3 promoter multi-copy plasmid in Pdc-deficient S. cerevisiae SOS5; no tag mentioned; ORF ends NAKQE by primer) MSEITLGRYLFERLKQVEVQTIFGLPGDFNLSLLDKIYEVPGMRWAGNANELNAAYAADGYARLKGMACVITTFGVGELSALNGIAGSYAEHVGVLHVVGVPSISSQAKQLLLHHTLGNGDFTVFHRMSSNISETTAMITDINSAPSEIDRCIRTTYISQRPVYLGLPANLVDLKVPASLLETPIDLSLKPNDPEAENEVLETVLELIKDAKNPVILADACCSRHNVKAETKKLIDITQFPAFVTPMGKGSIDEQHPRFGGVYVGTLSSPEVKEAVESADLVLSVGALLSDFNTGSFSYSYKTKNIVEFHSDYIKVRNATFPGVQMKFVLQKLLTKVKDAAKGYKPVPVPHAPRDNKPVADSTPLKQEWVWTQVGKFLQEGDVVLTETGTSAFGINQTHFPNDTYGISQVLWGSIGFTGGATLGAAFAAEEIDPKKRVILFIGDGSLQLTVQEISTMIRWGLKPYLFVLNNDGYTIERLIHGETAQYNCIQSWKHLDLLPTFGAKDYEAVRVATTGEWNKLTTDKKFQENSKIRLIEVMLPVMDAPSNLVKQAQLTASINAKQE	–	Km [1]: 7.7 mM
Pdc6 (Saccharomyces cerevisiae S288C) (protein, full-length ORF from genomic DNA, TDH3 promoter multi-copy plasmid in Pdc-deficient S. cerevisiae SOS5; no tag mentioned) SEITLGKYLFERLKQVNVNTIFGLPGDFNLSLLDKIYEVDGLRWAGNANELNAAYAADGYARIKGLSVLVTTFGVGELSALNGIAGSYAEHVGVLHVVGVPSISAQAKQLLLHHTLGNGDFTVFHRMSANISETTSMITDIATAPSEIDRLIRTTFITQRPSYLGLPANLVDLKVPGSLLEKPIDLSLKPNDPEAEKEVIDTVLELIQNSKNPVILSDACASRHNVKKETQKLIDLTQFPAFVTPLGKGSIDEQHPRYGGVYVGTLSKQDVKQAVESADLILSVGALLSDFNTGSFSYSYKTKNVVEFHSDYVKVKNATFLGVQMKFALQNLLKVIPDVVKGYKSVPVPTKTPANKGVPASTPLKQEWLWNELSKFLQEGDVIISETGTSAFGINQTIFPKDAYGISQVLWGSIGFTTGATLGAAFAAEEIDPNKRVILFIGDGSLQLTVQEISTMIRWGLKPYLFVLNNDGYTIEKLIHGPHAEYNEIQTWDHLALLPAFGAKKYENHKIATTGEWDALTTDSEFQKNSVIRLIELKLPVFDAPESLIKQAQLTAATNAKQ	8.2	–
Pdc5 (Saccharomyces cerevisiae S288C) (protein, full-length ORF from genomic DNA, TDH3 promoter multi-copy plasmid in Pdc-deficient S. cerevisiae SOS5; no tag mentioned) MSEITLGKYLFERLSQVNCNTVFGLPGDFNLSLLDKLYEVKGMRWAGNANELNAAYAADGYARIKGMSCIITTFGVGELSALNGIAGSYAEHVGVLHVVGVPSISSQAKQLLLHHTLGNGDFTVFHRMSANISETTAMITDIANAPAEIDRCIRTTYTTQRPVYLGLPANLVDLNVPAKLLETPIDLSLKPNDAEAEAEVVRTVVELIKDAKNPVILADACASRHDVKAETKKLMDLTQFPVYVTPMGKGAIDEQHPRYGGVYVGTLSRPEVKKAVESADLILSIGALLSDFNTGSFSYSYKTKNIVEFHSDHIKIRNATFPGVQMKFALQKLLDAIPEVVKDYKPVAVPARVPITKSTPANTPMKQEWMWNHLGNFLREGDIVIAETGTSAFGINQTTFPTDVYAIVQVLWGSIGFTVGALLGATMAAEELDPKKRVILFIGDGSLQLTVQEISTMIRWGLKPYIFVLNNNGYTIEKLIHGPHAEYNEIQGWDHLALLPTFGARNYETHRVATTGEWEKLTQDKDFQDNSKIRMIEVMLPVFDAPQNLVKQAQLTAATNAKQ	9.9	–
ScPdc1 (Saccharomyces cerevisiae S288C) (protein, full-length ORF from genomic DNA, TDH3 promoter multi-copy plasmid in Pdc-deficient S. cerevisiae SOS5; no tag mentioned) SEITLGKYLFERLKQVNVNTVFGLPGDFNLSLLDKIYEVEGMRWAGNANELNAAYAADGYARIKGMSCIITTFGVGELSALNGIAGSYAEHVGVLHVVGVPSISAQAKQLLLHHTLGNGDFTVFHRMSANISETTAMITDIATAPAEIDRCIRTTYVTQRPVYLGLPANLVDLNVPAKLLQTPIDMSLKPNDAESEKEVIDTILALVKDAKNPVILADACCSRHDVKAETKKLIDLTQFPAFVTPMGKGSIDEQHPRYGGVYVGTLSKPEVKEAVESADLILSVGALLSDFNTGSFSYSYKTKNIVEFHSDHMKIRNATFPGVQMKFVLQKLLTTIADAAKGYKPVAVPARTPANAAVPASTPLKQEWMWNQLGNFLQEGDVVIAETGTSAFGINQTTFPNNTYGISQVLWGSIGFTTGATLGAAFAAEEIDPKKRVILFIGDGSLQLTVQEISTMIRWGLKPYLFVLNNDGYTIEKLIHGPKAQYNEIQGWDHLSLLPTFGAKDYETHRVATTGEWDKLTQDKSFNDNSKIRMIEIMLPVFDAPQNLVEQAKLTAATNAKQ	4.7	–

— article PMC5148919, “Enhanced production of 2,3-butanediol by engineered Saccharomyces cerevisiae through fine-tuning of pyruvate decarboxylase and NADH oxidase activities” (Biotechnology for Biofuels, 2016)
